Measurements from PMC5758537.

Assays:
[1] = biological target: dopamine D2 receptor (rat, endogenous) (rat (endogenous in rat striatum)) (UniProt P61169); assay: co-IP; rat NAc protein homogenates (300 ug), anti-D2R antibody overnight at 4 C, protein G/A, blot with anti-D1R; rats treated with saline or SKF 83959, with or without TAT-D1 (300 pmol, i.c.v.)
[2] = biological target: dopamine D2 receptor (rat, endogenous) (rat (endogenous in rat striatum)) (UniProt P61169); assay: FRET or BRET; in situ confocal FRET on rat brain sections, NAc (core and shell); anti-D1R-Alexa 488 (donor) and anti-D2R-Alexa 568 (acceptor) directly conjugated

Sequence of UniProt P61169 (P61169 whole entry): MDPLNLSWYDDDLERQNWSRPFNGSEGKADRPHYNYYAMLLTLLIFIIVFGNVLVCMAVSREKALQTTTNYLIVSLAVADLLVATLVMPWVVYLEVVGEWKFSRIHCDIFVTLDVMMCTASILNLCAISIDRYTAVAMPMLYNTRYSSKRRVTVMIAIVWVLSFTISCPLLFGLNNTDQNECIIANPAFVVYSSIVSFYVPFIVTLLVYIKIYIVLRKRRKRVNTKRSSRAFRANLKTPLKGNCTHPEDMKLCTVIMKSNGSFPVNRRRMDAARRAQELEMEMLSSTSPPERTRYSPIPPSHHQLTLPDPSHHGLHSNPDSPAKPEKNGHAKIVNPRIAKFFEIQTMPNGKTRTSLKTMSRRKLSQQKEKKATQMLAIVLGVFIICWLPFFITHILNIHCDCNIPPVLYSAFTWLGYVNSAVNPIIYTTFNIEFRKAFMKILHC

Substance	percent decrease of D1R co-immunoprecipitated with D2R [1] [%]	FRET efficiency [2]
TAT-D1 peptide	> 50	
dopamine D1 receptor (rat, endogenous) (from UniProt P18901 1-446)		0.36
